The values below come from the RNAGym collection of RNA variant scans (doi:10.1073/pnas.2313332121).

Fewer inactive variants are shown than the library holds.

B1: TPR 5TU (parent)
chain: GGAUCUUCUCGAUCUAACAAAAAAGACAAAUCUGCCACAAAGCUUGAGAGCAUCUUCGGAUGCAGAGGCGGCAGCCUUCGGUGGCGCGAUAGCGCCAACGUUCUCAACUAUGACACGCAAAACGCGUGCUCCGUUGAAUGGAGUUUAUCAUG

This series covers variants of B1. As to the kind of experiment: polymerase ribozyme fitness, log enrichment relative to wild type (log ratio); higher = more active; in vitro selection for triplet polymerase activity. Put shortly: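 PCR was used to build mutant libraries for each subunit of a heterodimeric triplet polymerase ribozyme, which were then transcribed. A single in vitro selection round, in triplicate, used a frozen incubation at −7 °C and recovered extended constructs by gel excision, streptavidin beads and RT-PCR. Fitness is the logarithm of genotype enrichment relative to wild-type enrichment, averaged over replicates with inverse-variance weights. The logarithm is base 2, and after Illumina sequencing only genotypes with ≥10 input reads and ≥1 read per output were kept.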
With C69A A97G A98U U104A G124A, the “polymerase ribozyme fitness (log ratio)” value is -2.14.
A12U G81A C85A C99U: the “polymerase ribozyme fitness (log ratio)” value is -1.62.
In the case of A19U G83A U90A G94U it was no more than -4.2; in that of C18G G46U A73U C85U G92U C125A, no more than -4.2.
Turning to C14G C87G, the “polymerase ribozyme fitness (log ratio)” value was no more than -4.2.
Under C79A U90A G133U G143C stands no more than -4.2; under C14U A22G, -3.07.
On to G86U A122U, for which the “polymerase ribozyme fitness (log ratio)” value was -1.8.
In the case of C54U A60G A64G C85U C99A C105U A106C, the “polymerase ribozyme fitness (log ratio)” value was no more than -4.2.
Consider G46C A47C C72U C103A, for which the “polymerase ribozyme fitness (log ratio)” value was no more than -4.2.
On to C36U C57G C69A U134C, for which the “polymerase ribozyme fitness (log ratio)” value was -2.32.
Take C85G A107U G126U C132U: the “polymerase ribozyme fitness (log ratio)” value is no more than -4.2.
Consider C36A G94A A121C, for which the “polymerase ribozyme fitness (log ratio)” value is -4.03.
For the variant A106G A119C C125U, the “polymerase ribozyme fitness (log ratio)” value is -0.389.
Regarding A3U A39G G58C C96U, the “polymerase ribozyme fitness (log ratio)” value is -3.39.
U15C A40U G59C C85U: the “polymerase ribozyme fitness (log ratio)” value is 1.15.
On to G50C G126A, for which the “polymerase ribozyme fitness (log ratio)” value is -2.28.
For A19U A37C U82G A89U C95G A97C A107U U127A, the “polymerase ribozyme fitness (log ratio)” value was no more than -4.2.
Regarding G42C G143C, the “polymerase ribozyme fitness (log ratio)” value was no more than -4.2.
Under U55A C85U C116G G133C stands -1.34; under C38U A47G C51G C93U, -3.21.
As to U82C U90G, the “polymerase ribozyme fitness (log ratio)” value was no more than -4.2.
For the variant U13G G58C A122C, the “polymerase ribozyme fitness (log ratio)” value is -1.1.
For G136A A142C, the “polymerase ribozyme fitness (log ratio)” value is -0.134.
For A20C C54A G84U C116U, the “polymerase ribozyme fitness (log ratio)” value was -3.08.
In the case of G11C A120U it was -2.55; in that of C5A A26U G50A C51U A106C U139G, no more than -4.2.
For G83U A97U C105U G117U G141U, the “polymerase ribozyme fitness (log ratio)” value is no more than -4.2.
A24U G25C A37U G65C U90A C116G C131A G141C: the “polymerase ribozyme fitness (log ratio)” value is no more than -4.2.
Under C87G A122U C129U U134C stands no more than -4.2.
In the case of A22C G81A it was -0.137.
Under G59A C85G G92U C95A C116A U127G stands no more than -4.2.
A22U A52C C99U: the “polymerase ribozyme fitness (log ratio)” value is -1.89.
In the case of C5U A20U G50C G81A G117A C132U it was no more than -4.2; in that of A64U C93U A138G, no more than -4.2.
On to G141A G143C, for which the “polymerase ribozyme fitness (log ratio)” value was -3.92.
For the variant A19U A49U G71A C93U U102G C103G, the “polymerase ribozyme fitness (log ratio)” value was no more than -4.2.
In the case of A26C C27U C57A G68C C131G it was no more than -4.2; in that of A52C U78A C96A U144G, no more than -4.2; in that of G81C G117C G143U, -4.1.
Turning to U61A G65C U82G C118A A138U U151A, the “polymerase ribozyme fitness (log ratio)” value is no more than -4.2.
Under A20U A23U G42A G67A C93U stands no more than -4.2.
For C79U C96U, the “polymerase ribozyme fitness (log ratio)” value is -3.43.
A29C C69G C103G U151G: the “polymerase ribozyme fitness (log ratio)” value was no more than -4.2.
As to C36U C69A A91U G94U C118U A121U, the “polymerase ribozyme fitness (log ratio)” value is no more than -4.2.
In the case of C36A A91U C93G C118A A137U, the “polymerase ribozyme fitness (log ratio)” value was no more than -4.2.
In the case of A26C G65C G84A A89C G141C it was no more than -4.2; in that of C5A C10G C85A C118G, -3.84.
As to C95U G100U U148G, the “polymerase ribozyme fitness (log ratio)” value was no more than -4.2.
Take A22G C123A A147U: the “polymerase ribozyme fitness (log ratio)” value was 1.6.
As to C43A U56A G67A G88A G112C C114U, the “polymerase ribozyme fitness (log ratio)” value is no more than -4.2.
Turning to G48U A49U A98G C116G G133U, the “polymerase ribozyme fitness (log ratio)” value is no more than -4.2.
For G58U G83U C118U A137U, the “polymerase ribozyme fitness (log ratio)” value is no more than -4.2.
In the case of G59C G83A C125A, the “polymerase ribozyme fitness (log ratio)” value is -1.12.
In the case of A30G A41G A52G, the “polymerase ribozyme fitness (log ratio)” value is -2.03.
Regarding C5A A52U G83A, the “polymerase ribozyme fitness (log ratio)” value was -3.03.
As to U55A G83A C105G C118A, the “polymerase ribozyme fitness (log ratio)” value was -3.78.
In the case of A19G C27U G59U G94C it was -2.46; in that of C5A C35A C38U G74U C87A U148A, no more than -4.2.
In the case of U78G C87A it was no more than -4.2.
Under G83C A113U U145C stands -3.3; under U15G C57A A98U U102A A120U A122U, -1.85.
For the variant U6G A73G, the “polymerase ribozyme fitness (log ratio)” value was -0.521.
On to A28U C96A A121U U148C, for which the “polymerase ribozyme fitness (log ratio)” value is no more than -4.2.
U55A C85G: the “polymerase ribozyme fitness (log ratio)” value was -2.99.
Turning to U6G A16U C38U G83C U139A G141A, the “polymerase ribozyme fitness (log ratio)” value is no more than -4.2.
With C93U G140C, the “polymerase ribozyme fitness (log ratio)” value was -3.57.
For the variant A52U C105U, the “polymerase ribozyme fitness (log ratio)” value is -1.7.
Consider G80A G92U A97G, for which the “polymerase ribozyme fitness (log ratio)” value is -0.375.
Regarding A41C C93A A97C, the “polymerase ribozyme fitness (log ratio)” value was -3.96.
Take U33A A52G C85A C95A U148C U151A: the “polymerase ribozyme fitness (log ratio)” value was no more than -4.2.
Consider A41G U56G G58U G81A G84A C116U C149U, for which the “polymerase ribozyme fitness (log ratio)” value is -1.86.
For the variant C27A G34A G50A A64U U78A G94U A106U G126C U148G, the “polymerase ribozyme fitness (log ratio)” value is no more than -4.2.
As for A41C C87U A142G, the “polymerase ribozyme fitness (log ratio)” value is -1.45.
For C5G G81A A98G A121U G143C, the “polymerase ribozyme fitness (log ratio)” value is -2.76.
Regarding C54A G83C C85A, the “polymerase ribozyme fitness (log ratio)” value was no more than -4.2.
In the case of A66C A106G U144G, the “polymerase ribozyme fitness (log ratio)” value was no more than -4.2.
Turning to C8U U13C C27A G50A U61A G62U C93U A106C A110G C125G, the “polymerase ribozyme fitness (log ratio)” value was no more than -4.2.
Under A41C U151G stands -3.63; under A39C G65A A66C C85A G88C G140U, no more than -4.2; under C36U G46A G70A G83C A120U G133C, -3.23.
In the case of U82G A98G, the “polymerase ribozyme fitness (log ratio)” value stood at 0.302.
On to C43A C54U, for which the “polymerase ribozyme fitness (log ratio)” value is no more than -4.2.
On to U9C U33C C87A A122C, for which the “polymerase ribozyme fitness (log ratio)” value is no more than -4.2.
